Experimental data from patent US20230002480A1.

What was measured:
Experiment in all cases: cell-based or functional assay
[1] = target: HIV-1 Env of pseudovirus 6811.v7.c18 (HIV-1)
[2] = target: HIV-1 Env of pseudovirus CNE5 (HIV-1)
[3] = target: HIV-1 Env of pseudovirus 231966.c02 (HIV-1)
[4] = target: HIV-1 Env of pseudovirus X1254_c3 (HIV-1)
[5] = target: HIV-1 Env of pseudovirus 928-28 (HIV-1)
[6] = target: HIV-1 Env of pseudovirus P1981_C5_3 (HIV-1)
[7] = target: HIV-1 Env of pseudovirus T278-50 (HIV-1)
[8] = target: HIV-1 Env of pseudovirus T251-18 (HIV-1)
[9] = target: HIV-1 Env of pseudovirus X1193_c1 (HIV-1)
[10] = target: HIV-1 Env of pseudovirus CNE8 (HIV-1)
[11] = target: HIV-1 Env of pseudovirus BJOX028000.10.3 (HIV-1)
[12] = target: HIV-1 Env of pseudovirus 0260.v5.c36 (HIV-1)
[13] = target: HIV-1 Env of pseudovirus 6540.v4.c1 (HIV-1)
[14] = target: HIV-1 Env of pseudovirus BJOX015000.11.5 (HIV-1)
[15] = target: HIV-1 Env of pseudovirus R2184.c04 (HIV-1)

N49P7.2 (antibody)
IC50 [1]: 0.541 µg/mL | IC80 [1]: 2.55 µg/mL | MPI [1]: 100 | IC50 [2]: 0.206 µg/mL | IC80 [2]: 0.893 µg/mL | MPI [2]: 100 | IC50 [3]: 0.233 µg/mL | IC80 [3]: 1.11 µg/mL | MPI [3]: 100 | IC50 [4]: 27.5 µg/mL | IC80 [4]: > 50 µg/mL | MPI [4]: 53 | IC50 [5]: 0.347 µg/mL | IC80 [5]: 1.11 µg/mL | MPI [5]: 100 | IC50 [6]: 0.258 µg/mL | IC80 [6]: 0.716 µg/mL | MPI [6]: 100 | IC50 [7]: > 50 µg/mL | IC80 [7]: > 50 µg/mL | MPI [7]: 33 | IC50 [8]: 0.222 µg/mL | IC80 [8]: 0.741 µg/mL | MPI [8]: 100 | IC50 [9]: 0.014 µg/mL | IC80 [9]: 0.101 µg/mL | MPI [9]: 100 | IC50 [10]: 0.073 µg/mL | IC80 [10]: 0.24 µg/mL | MPI [10]: 100 | IC50 [11]: 0.322 µg/mL | IC80 [11]: 1.49 µg/mL | MPI [11]: 100 | IC50 [12]: 0.644 µg/mL | IC80 [12]: 1.8 µg/mL | MPI [12]: 100 | IC50 [13]: > 50 µg/mL | IC80 [13]: > 50 µg/mL | MPI [13]: 33 | IC50 [14]: 0.289 µg/mL | IC80 [14]: 1.26 µg/mL | MPI [14]: 100 | IC50 [15]: 0.02 µg/mL | IC80 [15]: 0.047 µg/mL | MPI [15]: 100

N49P18.1 (antibody)
IC50 [1]: 7.43 µg/mL | IC80 [1]: 31.9 µg/mL | MPI [1]: 94 | IC50 [2]: 19.5 µg/mL | IC80 [2]: > 50 µg/mL | MPI [2]: 72 | IC50 [3]: 29.9 µg/mL | IC80 [3]: > 50 µg/mL | MPI [3]: 67 | IC50 [4]: 24.8 µg/mL | IC80 [4]: > 50 µg/mL | MPI [4]: 61 | IC50 [5]: 22.7 µg/mL | IC80 [5]: > 50 µg/mL | MPI [5]: 71 | IC50 [6]: 19.3 µg/mL | IC80 [6]: 45.4 µg/mL | MPI [6]: 83 | IC50 [7]: > 50 µg/mL | IC80 [7]: > 50 µg/mL | MPI [7]: 36 | IC50 [8]: 23 µg/mL | IC80 [8]: > 50 µg/mL | MPI [8]: 70 | IC50 [9]: 3.12 µg/mL | IC80 [9]: 23.9 µg/mL | MPI [9]: 94 | IC50 [10]: 16.2 µg/mL | IC80 [10]: 44.7 µg/mL | MPI [10]: 83 | IC50 [11]: 34 µg/mL | IC80 [11]: > 50 µg/mL | MPI [11]: 64 | IC50 [12]: 16.2 µg/mL | IC80 [12]: 47.8 µg/mL | MPI [12]: 81 | IC50 [13]: > 50 µg/mL | IC80 [13]: > 50 µg/mL | MPI [13]: 35 | IC50 [14]: 27.3 µg/mL | IC80 [14]: > 50 µg/mL | MPI [14]: 67 | IC50 [15]: 3.38 µg/mL | IC80 [15]: 11.8 µg/mL | MPI [15]: 100
